# Experimental data: IntAct's records for PubMed 9853758
# B1: Phosphate system positive regulatory protein PHO4 (Saccharomyces cerevisiae), P07270 (parent)
# chain: MGRTTSEGIHGFVDDLEPKSSILDKVGDFITVNTKRHDGREDFNEQNDELNSQENHNSSENGNENENEQDSLALDDLDRAFELVEGMDMDWMMPSHAHHSPATTATIKPRLLYSPLIHTQSAVPVTISPNLVATATSTTSANKVTKNKSNSSPYLNKRRGKPGPDSATSLFELPDSVIPTPKPKPKPKQYPKVILPSNSTRRVSPVTAKTSSSAEGVVVASESPVIAPHGSSHSRSLSKRRSSGALVDDDKRESHKHAEQARRNRLAVALHELASLIPAEWKQQNVSAAPSKATTVEAACRYIRHLQQNVST
# partner: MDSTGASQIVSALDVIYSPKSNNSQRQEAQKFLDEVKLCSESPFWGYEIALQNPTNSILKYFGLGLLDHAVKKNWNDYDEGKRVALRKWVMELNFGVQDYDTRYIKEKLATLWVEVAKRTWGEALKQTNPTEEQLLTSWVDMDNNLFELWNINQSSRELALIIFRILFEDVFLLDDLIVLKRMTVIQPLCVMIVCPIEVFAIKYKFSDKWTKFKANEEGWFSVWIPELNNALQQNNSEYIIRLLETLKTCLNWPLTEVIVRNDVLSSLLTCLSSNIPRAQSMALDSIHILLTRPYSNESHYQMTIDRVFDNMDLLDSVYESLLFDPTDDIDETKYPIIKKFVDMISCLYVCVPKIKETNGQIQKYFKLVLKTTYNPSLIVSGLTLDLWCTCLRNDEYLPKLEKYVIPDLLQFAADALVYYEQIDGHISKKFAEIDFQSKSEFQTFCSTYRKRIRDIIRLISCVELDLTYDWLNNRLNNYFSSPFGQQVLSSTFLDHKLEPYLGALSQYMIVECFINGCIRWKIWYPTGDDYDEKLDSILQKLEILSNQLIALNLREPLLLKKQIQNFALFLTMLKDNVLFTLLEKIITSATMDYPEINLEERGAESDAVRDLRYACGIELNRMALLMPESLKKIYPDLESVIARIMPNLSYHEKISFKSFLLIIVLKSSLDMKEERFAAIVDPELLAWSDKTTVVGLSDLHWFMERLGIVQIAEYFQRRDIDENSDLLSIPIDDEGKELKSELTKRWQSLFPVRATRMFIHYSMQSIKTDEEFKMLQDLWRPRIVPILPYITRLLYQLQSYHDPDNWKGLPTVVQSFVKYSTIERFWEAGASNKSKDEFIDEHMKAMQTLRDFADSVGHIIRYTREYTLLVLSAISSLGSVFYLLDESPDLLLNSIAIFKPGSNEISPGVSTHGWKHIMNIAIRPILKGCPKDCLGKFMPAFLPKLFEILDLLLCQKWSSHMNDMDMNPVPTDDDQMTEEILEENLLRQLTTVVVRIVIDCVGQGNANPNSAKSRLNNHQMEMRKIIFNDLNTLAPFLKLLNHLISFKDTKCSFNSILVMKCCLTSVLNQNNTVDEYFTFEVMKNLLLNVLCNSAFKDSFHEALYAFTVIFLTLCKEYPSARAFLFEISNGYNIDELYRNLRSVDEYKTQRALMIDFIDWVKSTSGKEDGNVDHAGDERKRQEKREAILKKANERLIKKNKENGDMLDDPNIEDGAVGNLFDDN
# Variants of: B1
# Conditions: with msn5_yeast MSN5, P52918
row,effect of a mutation on the interaction,Variant
1,disrupting interaction,S100A;S114A;S128A;S152A;S223A
